According to patent publication US10684274 (GEORGE WASHINGTON UNIVERSITY A CONGRESSIONALLY CHARTERED …, dated 2020):

Experiments:
[1] = target: endogenous calnexin (HEK293T and other human cells) (human) (UniProt P27824); experiment: co-immunoprecipitation from HEK293T cells transfected with HIV-1 molecular clones; IP of endogenous calnexin with anti-CNX antibody, western blot for Nef; reference lane
[2] = target: endogenous calnexin (HEK293T and other human cells) (human) (UniProt P27824); experiment: co-immunoprecipitation with endogenous calnexin, HEK293T cells (FIG. 3A)
[3] = target: endogenous calnexin (HEK293T and other human cells) (human) (UniProt P27824); experiment: co-immunoprecipitation with endogenous calnexin, HEK293T cells transfected with mutant HIV-1 NL4-3 clone, immunoblot for Nef
[4] = target: endogenous calnexin (HEK293T and other human cells) (human) (UniProt P27824); experiment: co-immunoprecipitation from HEK293T cells transfected with HIV-1 molecular clones; IP of endogenous calnexin with anti-CNX antibody, western blot for Nef; relative to the Nef wt lane; no Nef band is visible in this lane
myristoylated NefSF2 = target: T1, myristoylated NefSF2 (HIV-1, UniProt P03407 2-210, myristoylated (site not given)); experiment: SPR, Biacore T-200, CNX-CT amine-coupled on CM5 chip, Nef as analyte, 25 C
T1 construct: Analyte in SPR

[5] = target: T2, HA-tagged calnexin with deletion of the lumenal repeat segment (CNXΔ276-409) (human, UniProt P27824 21-592); experiment: co-immunoprecipitation with anti-HA beads from HEK293T lysates, immunoblot for Nef, densitometry
T2 construct: Made by restriction digest and re-ligation, so junction residues are not known
T2 sequence: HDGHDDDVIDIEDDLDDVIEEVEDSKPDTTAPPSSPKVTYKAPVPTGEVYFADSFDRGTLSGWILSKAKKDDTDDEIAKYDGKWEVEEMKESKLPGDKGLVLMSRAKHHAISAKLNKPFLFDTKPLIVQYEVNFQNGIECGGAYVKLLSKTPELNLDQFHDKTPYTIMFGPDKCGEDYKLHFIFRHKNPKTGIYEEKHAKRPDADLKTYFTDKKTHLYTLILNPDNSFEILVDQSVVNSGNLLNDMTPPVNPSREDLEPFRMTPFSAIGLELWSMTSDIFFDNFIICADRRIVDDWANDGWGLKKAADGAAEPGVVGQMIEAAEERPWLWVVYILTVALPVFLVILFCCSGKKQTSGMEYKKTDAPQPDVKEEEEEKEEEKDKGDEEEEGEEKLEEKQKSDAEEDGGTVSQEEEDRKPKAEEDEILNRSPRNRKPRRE

[6] = target: T3, HA-tagged calnexin with truncation of the C-terminal cytoplasmic domain (CNXΔ504-586) (human, UniProt P27824 21-592); experiment: as above
T3 sequence: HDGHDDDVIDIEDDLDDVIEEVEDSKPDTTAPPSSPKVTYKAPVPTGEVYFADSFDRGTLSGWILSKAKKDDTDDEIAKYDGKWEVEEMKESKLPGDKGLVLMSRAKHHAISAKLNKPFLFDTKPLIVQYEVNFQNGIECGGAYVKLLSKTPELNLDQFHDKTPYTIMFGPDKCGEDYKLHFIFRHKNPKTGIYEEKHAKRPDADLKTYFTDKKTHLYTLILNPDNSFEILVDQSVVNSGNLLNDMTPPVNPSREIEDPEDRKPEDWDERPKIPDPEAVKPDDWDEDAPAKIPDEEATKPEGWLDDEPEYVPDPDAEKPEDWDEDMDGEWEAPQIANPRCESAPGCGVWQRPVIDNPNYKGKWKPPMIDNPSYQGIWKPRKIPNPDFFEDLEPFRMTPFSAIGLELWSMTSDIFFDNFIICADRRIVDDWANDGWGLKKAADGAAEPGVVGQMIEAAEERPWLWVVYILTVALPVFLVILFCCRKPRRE

[7] = target: T4, endogenous calnexin (HEK293T and other human cells) (human, UniProt P27824 21-592); experiment: co-immunoprecipitation with endogenous calnexin, HEK293T cells, densitometry
T4 construct: Endogenous cellular protein, immunoprecipitated with a monoclonal anti-calnexin antibody or co-precipitated with HA-Nef; also called CNX
T4 sequence: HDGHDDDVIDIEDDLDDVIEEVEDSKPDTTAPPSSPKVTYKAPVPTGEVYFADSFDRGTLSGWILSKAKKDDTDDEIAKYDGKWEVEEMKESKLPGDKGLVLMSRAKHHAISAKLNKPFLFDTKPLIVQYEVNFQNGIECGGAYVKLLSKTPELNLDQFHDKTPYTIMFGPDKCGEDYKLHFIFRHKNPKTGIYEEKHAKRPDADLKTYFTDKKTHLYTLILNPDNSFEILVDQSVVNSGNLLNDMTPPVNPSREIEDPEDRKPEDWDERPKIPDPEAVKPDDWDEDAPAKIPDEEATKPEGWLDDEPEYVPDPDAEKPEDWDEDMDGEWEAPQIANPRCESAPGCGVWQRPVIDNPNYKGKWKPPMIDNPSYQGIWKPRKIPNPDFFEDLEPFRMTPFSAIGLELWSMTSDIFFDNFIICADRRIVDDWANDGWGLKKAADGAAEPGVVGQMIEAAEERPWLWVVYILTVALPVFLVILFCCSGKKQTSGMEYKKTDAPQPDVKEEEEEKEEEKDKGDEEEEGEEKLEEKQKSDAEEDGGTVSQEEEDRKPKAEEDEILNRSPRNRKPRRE

[8] = target: T4, endogenous calnexin (HEK293T and other …); experiment: co-immunoprecipitation from HEK293T cells transfected with pcDNA Nef plasmids; IP of endogenous calnexin with anti-CNX antibody, western blot for Nef; relative to the Nef wt lane
[9] = target: T5, ABCA1-FLAG (ATP-binding cassette A1 with FLAG tag) (UniProt O95477 1-2261); experiment: co-immunoprecipitation with ABCA1-FLAG (anti-FLAG beads), HEK293T cells, densitometry
T5 construct: whole, on cells; Immunoprecipitated with anti-FLAG beads from lysates; not shown: FLAG tag
T5 sequence (O95477 whole entry): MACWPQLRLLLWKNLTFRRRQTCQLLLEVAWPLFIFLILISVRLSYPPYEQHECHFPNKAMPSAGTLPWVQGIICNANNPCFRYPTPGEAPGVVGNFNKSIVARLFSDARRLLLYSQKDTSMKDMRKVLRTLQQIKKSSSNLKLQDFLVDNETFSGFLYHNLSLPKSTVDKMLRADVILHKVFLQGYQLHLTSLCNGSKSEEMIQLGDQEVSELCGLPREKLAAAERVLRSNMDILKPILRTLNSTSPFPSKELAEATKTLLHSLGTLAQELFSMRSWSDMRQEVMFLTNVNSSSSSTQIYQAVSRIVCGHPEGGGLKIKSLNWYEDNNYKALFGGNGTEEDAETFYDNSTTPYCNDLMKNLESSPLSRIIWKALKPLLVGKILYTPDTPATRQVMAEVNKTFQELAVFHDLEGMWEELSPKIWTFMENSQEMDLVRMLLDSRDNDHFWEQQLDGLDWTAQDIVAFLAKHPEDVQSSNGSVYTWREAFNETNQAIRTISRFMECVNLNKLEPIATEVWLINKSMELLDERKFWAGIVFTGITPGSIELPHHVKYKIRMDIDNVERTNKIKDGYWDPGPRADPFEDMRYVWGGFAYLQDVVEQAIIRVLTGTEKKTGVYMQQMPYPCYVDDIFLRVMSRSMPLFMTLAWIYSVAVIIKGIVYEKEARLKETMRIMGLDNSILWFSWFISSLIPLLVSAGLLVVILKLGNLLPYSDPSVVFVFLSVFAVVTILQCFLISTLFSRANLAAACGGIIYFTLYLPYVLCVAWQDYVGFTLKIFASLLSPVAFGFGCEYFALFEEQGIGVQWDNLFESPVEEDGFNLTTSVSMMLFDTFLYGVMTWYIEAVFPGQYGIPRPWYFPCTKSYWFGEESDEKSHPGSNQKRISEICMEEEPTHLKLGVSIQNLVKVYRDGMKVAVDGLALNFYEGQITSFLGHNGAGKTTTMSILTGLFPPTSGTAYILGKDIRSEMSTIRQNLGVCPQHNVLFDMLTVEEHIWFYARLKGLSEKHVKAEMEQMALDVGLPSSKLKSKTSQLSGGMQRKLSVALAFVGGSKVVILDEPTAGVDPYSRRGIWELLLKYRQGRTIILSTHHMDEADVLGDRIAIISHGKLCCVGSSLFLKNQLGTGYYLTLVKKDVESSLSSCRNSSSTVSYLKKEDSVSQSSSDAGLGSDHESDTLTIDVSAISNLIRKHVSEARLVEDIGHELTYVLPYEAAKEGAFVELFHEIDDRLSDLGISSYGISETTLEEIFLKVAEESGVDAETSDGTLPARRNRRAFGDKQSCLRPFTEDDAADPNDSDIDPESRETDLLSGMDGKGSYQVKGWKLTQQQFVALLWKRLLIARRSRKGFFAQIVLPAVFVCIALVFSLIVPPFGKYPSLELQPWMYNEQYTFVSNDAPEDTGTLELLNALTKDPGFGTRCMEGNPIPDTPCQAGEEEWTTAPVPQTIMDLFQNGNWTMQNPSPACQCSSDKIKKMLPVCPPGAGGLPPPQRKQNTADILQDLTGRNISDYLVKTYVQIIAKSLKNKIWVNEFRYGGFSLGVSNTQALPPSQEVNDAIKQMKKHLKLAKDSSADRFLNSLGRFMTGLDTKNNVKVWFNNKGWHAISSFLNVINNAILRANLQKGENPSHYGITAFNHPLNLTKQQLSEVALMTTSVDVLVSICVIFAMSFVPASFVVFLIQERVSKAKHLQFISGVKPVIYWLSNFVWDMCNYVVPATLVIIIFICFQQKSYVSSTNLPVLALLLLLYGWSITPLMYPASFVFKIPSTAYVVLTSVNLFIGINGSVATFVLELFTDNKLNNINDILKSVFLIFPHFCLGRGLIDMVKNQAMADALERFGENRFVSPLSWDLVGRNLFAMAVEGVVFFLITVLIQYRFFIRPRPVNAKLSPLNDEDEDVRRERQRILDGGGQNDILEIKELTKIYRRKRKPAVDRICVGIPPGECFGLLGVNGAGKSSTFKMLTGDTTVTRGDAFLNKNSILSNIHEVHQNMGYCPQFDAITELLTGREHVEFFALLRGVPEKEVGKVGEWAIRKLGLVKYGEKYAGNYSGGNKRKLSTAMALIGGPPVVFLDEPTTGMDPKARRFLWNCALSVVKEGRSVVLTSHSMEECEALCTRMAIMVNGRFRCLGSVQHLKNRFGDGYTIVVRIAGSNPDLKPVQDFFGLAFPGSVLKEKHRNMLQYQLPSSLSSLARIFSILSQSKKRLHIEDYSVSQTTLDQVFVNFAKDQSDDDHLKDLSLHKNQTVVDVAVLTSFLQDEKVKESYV

[10] = target: T4, endogenous calnexin (HEK293T and other …); experiment: co-immunoprecipitation with endogenous calnexin (monoclonal anti-calnexin), HEK293T cells, immunoblot for Nef

HIV-1 NL4-3 Nef, wild type (expressed from HIV-1 NL4-3 molecular clone)
relative amount of co-precipitated Nef (gel densitometry) [1]: 1

HIV-1 NL4-3 Nef K4,7A mutant (expressed from mutant HIV-1 NL4-3 clone)
loss of interaction relative to Nef WT [2]: > 95%
reduction of interaction relative to Nef WT [3]: 95%
relative amount of co-precipitated Nef (gel densitometry) [4]: 0.05

B1: recombinant calnexin cytoplasmic tail (CNX-CT), N-terminal His-tag and SUMO domain, purified from E. coli (other)
chain: HHHHHHHHCSGKKQTSGMEYKKTDAPQPDVKEEEEEKEEEKDKGDEEEEGEEKLEEKQKSDAEEDGGTVSQEEEDRKPKAEEDEILNRSPRNRKPRRE
notes: also called cytoplasmic tail of CNX; C-terminal (cytoplasmic) domain of CNX
Kd (myristoylated NefSF2): 9.4 nM
koff (myristoylated NefSF2): 0.00857 s⁻¹
kon (myristoylated NefSF2): 908000 M⁻¹ s⁻¹

B2: HIV-1 Nef, BRU isolate, wild type (NefBRU) (other)
chain: GGKWSKSSVVGWPTVRERMRRAEPAADGVGAASRDLEKHGAITSSNTAATNAACAWLEAQEEEEVGFPVTPQVPLRPMTYKAAVDLSHFLKEKGGLEGLIHSQRRQDILDLWIYHTQGYFPDWQNYTPGPGVRYPLTFGWCYKLVPVEPDKVEEANKGENTSLLHPVSLHGMDDPEREVLEWRFDSRLAFHHVARELHPEYFKNC
notes: whole, on cells; also called Nef WT; WT Nef
reduction of binding relative to WT calnexin [5]: 40%
reduction of binding relative to WT calnexin [6]: 70%

B3: HIV-1 Nef BRU K4A mutant (NefK4A) (other)
chain: GGAWSKSSVVGWPTVRERMRRAEPAADGVGAASRDLEKHGAITSSNTAATNAACAWLEAQEEEEVGFPVTPQVPLRPMTYKAAVDLSHFLKEKGGLEGLIHSQRRQDILDLWIYHTQGYFPDWQNYTPGPGVRYPLTFGWCYKLVPVEPDKVEEANKGENTSLLHPVSLHGMDDPEREVLEWRFDSRLAFHHVARELHPEYFKNC
notes: whole, on cells; Expressed in HEK293T cells, co-immunoprecipitated from lysates
reduction of interaction relative to WT Nef [7]: 50%
relative amount of co-precipitated Nef (gel densitometry) [8]: 0.5

B4: HIV-1 Nef BRU K7A mutant (NefK7A) (other)
chain: GGKWSASSVVGWPTVRERMRRAEPAADGVGAASRDLEKHGAITSSNTAATNAACAWLEAQEEEEVGFPVTPQVPLRPMTYKAAVDLSHFLKEKGGLEGLIHSQRRQDILDLWIYHTQGYFPDWQNYTPGPGVRYPLTFGWCYKLVPVEPDKVEEANKGENTSLLHPVSLHGMDDPEREVLEWRFDSRLAFHHVARELHPEYFKNC
notes: as for B3
reduction of interaction relative to WT Nef [7]: 90%
relative amount of co-precipitated Nef (gel densitometry) [8]: 0.1

B5: HIV-1 Nef BRU K4,7A double mutant (NefK4,7A, pcDNA plasmid) (other)
chain: GGAWSASSVVGWPTVRERMRRAEPAADGVGAASRDLEKHGAITSSNTAATNAACAWLEAQEEEEVGFPVTPQVPLRPMTYKAAVDLSHFLKEKGGLEGLIHSQRRQDILDLWIYHTQGYFPDWQNYTPGPGVRYPLTFGWCYKLVPVEPDKVEEANKGENTSLLHPVSLHGMDDPEREVLEWRFDSRLAFHHVARELHPEYFKNC
notes: as for B3
reduction of interaction relative to wild-type Nef [9]: ~30%
binding result [10]: no binding
relative amount of co-precipitated Nef (gel densitometry) [8]: 0.01
